Test results from patent US20120302492A1.

Target: GPIIb/IIIa protein (UniProt P08514)
Assay: equal mix of wt and RGD1 phage bound to GPIIb/IIIa-coated plate, eluted, phagemid DNA analysis

B1: phage wtCD59 (CD59-gIII fusion protein displayed on phage) (protein, human, UniProt P13987 26-102, looked up, not shown: small tags and cut ends; large carriers)
chain: LQCYNCPNPTADCKTAVNCSSDFDACLITKAGLQVYNKCWKFEHCNFNDVTTRLRENELTYYCCKKDLCNFNEQLEN
- clones recovered among 12 picked after binding of an equal phage mix: 1 clones of 12
